Experimental findings from patent publication US6288042, “Anti-viral guanosine-rich tetrad forming oligonucleotides” (Aronex Pharmaceuticals, Inc.) are described below.

Data set [1] concerns the target T1, HIV-1 integrase wild-type (IN1-288) (Human immunodeficiency virus 1, UniProt P04585 P04585:1148-1435). Briefly: inhibition; 3'-processing column as printed; strand transfer column 0.159. Particulars: G4.
Data set [2] deals with HIV-1 gp120 (Human immunodeficiency virus 1, UniProt P04578 P04578:33-511). In words: competition; PT oligonucleotide inhibits V3 loop Mab binding to immobilized gp120. To be noted: tags: immobilized.
Data set [3] addresses T1, HIV-1 integrase wild-type (IN1-288). Briefly: inhibition; 3'-processing column as printed; strand transfer column 0.485. Particulars: G4.
Data set [4] has the same target. Briefly: inhibition; 3'-processing column as printed; strand transfer column 0.059. Particulars: G4.
Data set [5] concerns the target FMLV reverse transcriptase (Friend murine leukemia virus, UniProt P26810 P26810:661-1331). Briefly: inhibition; reverse transcriptase activity in culture medium. Particulars: protein: virion; tags: culture medium of chronically infected NIH3T3 cells.
Data set [6] has as its target T1, HIV-1 integrase wild-type (IN1-288). In words: inhibition; 3'-processing column as printed; strand transfer column 0.110. To be noted: G4.
Data set [7] has the same target. In words: inhibition; 3'-processing column as printed; strand transfer column 0.090. Particulars: G4.
Data set [8] has the same target. Briefly: inhibition; 3'-processing; other column (strand transfer) 0.870; Table B-7 gives >0.50; only modest inhibition of U5 DNA binding at 500 nM (FIG. 25). Particulars: G4.
The target is the same in data set [9]. Briefly: inhibition; 3'-processing column as printed; strand transfer column 0.129. To be noted: G4.
In data set [10] the target is T2, SIV integrase (Simian immunodeficiency virus, UniProt P05896 P05896:1156-1448).
T2 sequence: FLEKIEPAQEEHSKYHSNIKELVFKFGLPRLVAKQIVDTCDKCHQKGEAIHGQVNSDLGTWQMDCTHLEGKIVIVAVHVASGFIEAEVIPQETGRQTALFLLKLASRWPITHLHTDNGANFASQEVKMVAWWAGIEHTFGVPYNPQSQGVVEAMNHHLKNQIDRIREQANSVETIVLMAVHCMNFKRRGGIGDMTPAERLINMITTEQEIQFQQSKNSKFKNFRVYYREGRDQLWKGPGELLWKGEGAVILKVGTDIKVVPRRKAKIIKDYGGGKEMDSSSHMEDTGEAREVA
In words: inhibition; 3'-processing. To be noted: G4.

Data set [11] concerns the target FIV integrase (Feline immunodeficiency virus, UniProt P16088 P16088:844-1124). In words: inhibition; 3'-processing. To be noted: G4.
Data set [12] concerns the target HIV-1 nucleocapsid protein (Human immunodeficiency virus 1, UniProt P04591 P04591:378-432). In words: binds efficiently, data not shown. To be noted: G4.

The term IC50 denotes the concentration that inhibits the measured activity by half. A low value points to greater potency.

B1: T30679 (structured_DNA)
DNA: GTGGTTGGTGGGTGGGT
modifications: PS at first and last linkage
In data set [1], B1 displayed an IC50 of 156 nM.

B2: I100-21 (ssDNA)
DNA: GTGGTGGGTGGGTGGGTGGTGGGTGGTGGTTGTGGGTGGGTGGTG
modifications: PS all linkages
For the molecule B2, the binding result in data set [2] is “binds”.

B3: T30675 (structured_DNA)
DNA: GTGGTGGGTGTGGTTGGT
modifications: PS at first and last linkage
For B3, the IC50 in data set [3] came out at 500 nM.

B4: T30720 (structured_DNA)
DNA: GGGGTGGTGGGTGGGT
modifications: C-5 propynyl dU at capital T; PS at first and last linkage
On to B4, for which the IC50 in [4] worked out at 62 nM.

B5: I100-12 (ssDNA)
DNA: GTTGGGGGTTGTTGGTGGGGTGGTGG
modifications: PS all linkages
In turn, B5 displayed an IC50 in [5] below 500 nM.

B6: T30075 (structured_DNA)
DNA: GTGGTGGGTGGGTGGGT
modifications: 3'-cholesterol via triglycyl linker
B6 gave an IC50 in [6] of 95 nM.

B7: T30570 (structured_DNA)
DNA: GTGGTGGGTGGGTGGGT
modifications: 5-bromo dU at 13; PS at first and last linkage [n positions 13 = modified dU]
For B7, half-maximal inhibition in data set [7] (IC50) required 70 nM.

B8: T30659 thrombin binding aptamer pPT (structured_DNA)
DNA: GGTTGGTGTGGTTGG
modifications: PS at first and last linkage (Table B-7; Table C-1 says PT)
B8 showed an IC50 in [8] of 750 nM.

B9: T30722 (structured_DNA)
DNA: GTGGGTGGTGGGTGGGT
modifications: C-5 propynyl dU at capital T; PS at first and last linkage
In the case of B9, the IC50 in [9] is 134 nM.

B10: T30177 (AR177) (structured_DNA)
DNA: GTGGTGGGTGGGTGGGT
modifications: PS at first and last linkage (pPT)
For the molecule B10, the values for the IC50 in data set [10] and in [11] were 420 nM and 175 nM, respectively. Moreover, the binding result in data set [12] is listed as “binds”.

B11: 1174 (ssDNA)
DNA: GGGTGGGTGGGTGGGTGG
modifications: PS all linkages
In the case of B11, in data set [2], the binding result is reported as “binds”.
